Measured values published in article PMC9482650, “Quantitative fragmentomics allow affinity mapping of interactomes” (Nature Communications, 2022).

T1: ARHGAP21, Q5T5U3
T1 sequence (Q5T5U3 45-169, limits assumed, looked up): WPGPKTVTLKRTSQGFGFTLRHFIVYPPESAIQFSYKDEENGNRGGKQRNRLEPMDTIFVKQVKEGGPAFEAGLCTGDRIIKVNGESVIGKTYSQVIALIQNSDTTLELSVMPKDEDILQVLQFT


Key:
GOPC, Q9HD26 = experiment: holdup assay; design: key: below the threshold = too weak to quantify, mostly under pKd 3.1 to 4
ARHGAP21, Q5T5U3 = molecular target: T1, ARHGAP21, Q5T5U3; experiment: holdup assay; design: key: below the threshold = too weak to quantify, mostly under pKd 3.1 to 4
[1] = plain residues with an end cap or a label only (N-terminal biotin on a linker: ttds)
[2] = plain residues with an end cap or a label only (N-terminal biotin on a linker: ado-ado)
[3] = plain residues with an end cap or a label only (N-terminal biotin on a linker: ahx)
[4] = plain residues with an end cap or a label only (N-terminal biotin on a linker: gsgsgs; C-terminal amide)

Binder	pKd (GOPC, Q9HD26; [1])	pKd (ARHGAP21, Q5T5U3; [1])	pKd (GOPC, Q9HD26; [3])	pKd (ARHGAP21, Q5T5U3; [3])	other results
SRRPRTETQV [HPV31-E6, P17386]	below the threshold	below the threshold	–	–	–
FVHPILQSAV [PRKCA, P17252]	–	–	–	–	pKd (GOPC, Q9HD26; [2]): 4; pKd (ARHGAP21, Q5T5U3; [2]): 3.84
RNCSTNDSLL [ADRB2, P07550]	–	–	below the threshold	3.56	–
PKRPFVESNV [TANC2, Q9HCD6]	below the threshold	below the threshold	–	–	–
RGGFGRQTQI [NCBP2L, A6PVI3]	–	–	–	–	pKd (GOPC, Q9HD26; [2]): 4.05; pKd (ARHGAP21, Q5T5U3; [2]): below the threshold
ELIQDTSTSFSTTREW [ARAP3_int, Q8WWN8]	–	–	–	–	pKd (GOPC, Q9HD26; [4]): below the threshold; pKd (ARHGAP21, Q5T5U3; [4]): below the threshold
VNKVWDQSSV [CIT, O14578]	3.77	below the threshold	–	–	–
KTSAHHATFV [RGS12, O14924]	–	–	3.53	below the threshold	–
QKNKDKEYYV [NRXN3_rs746444206, Q9Y4C0]	–	–	–	–	pKd (GOPC, Q9HD26; [2]): below the threshold; pKd (ARHGAP21, Q5T5U3; [2]): 4.09
EEPEERHTEL [CES2, O00748]	–	–	–	–	pKd (GOPC, Q9HD26; [2]): below the threshold; pKd (ARHGAP21, Q5T5U3; [2]): below the threshold
SVVSERISSV [HTR2C, P28335]	–	–	–	–	pKd (GOPC, Q9HD26; [2]): below the threshold; pKd (ARHGAP21, Q5T5U3; [2]): below the threshold
LDSQIQETSI [MAP4, P27816]	4.14	below the threshold	–	–	–
NQLAWFDTDL [CTNNB1, P35222]	below the threshold	4.88	–	–	–
DPRNTQTSQI [ABRAXAS2, Q15018]	4.13	below the threshold	–	–	–
EDEDEQVSAV [RAPGEF2, Q9Y4G8]	–	–	below the threshold	below the threshold	–
SPLHSLETSL [ATP2B1, P20020]	4.13	3.58	–	–	–
TIVSWPGTFL [LNX1, Q8TBB1]	–	–	3.75	below the threshold	–

Binder	pKd (GOPC, Q9HD26; [1])	pKd (ARHGAP21, Q5T5U3; [1])	pKd (GOPC, Q9HD26; [3])	pKd (ARHGAP21, Q5T5U3; [3])	other results
LCALPKVTTV [AGMAT, Q9BSE5]	3.78	below the threshold	–	–	–
SSSNSEDTEM [NHERF3, Q5T2W1]	–	–	below the threshold	below the threshold	–
GGPKEEESPV [SLC16A1, P53985]	below the threshold	below the threshold	–	–	–
HSGSYLVTSV [APC, P25054]	–	–	4.3	below the threshold	–
EKLSSIESDV [GRIN2B, Q13224]	–	–	3.63	3.71	–
QFQYAKESYI [TAGAP, Q8N103]	3.95	below the threshold	–	–	–
GKKSVKHSKI [ACOT6, Q3I5F7]	–	–	–	–	pKd (GOPC, Q9HD26; [2]): 3.68; pKd (ARHGAP21, Q5T5U3; [2]): 4.06
TETASVCTKV [SLC23A1, Q9UHI7]	–	–	–	–	pKd (GOPC, Q9HD26; [2]): 4.17; pKd (ARHGAP21, Q5T5U3; [2]): 3.94
LCKSHAFSHV [PDLIM7, Q9NR12;Q9NR12-1]	–	–	below the threshold	below the threshold	–
EDLTKNHDEL [RCN1, Q15293]	–	–	–	–	pKd (GOPC, Q9HD26; [2]): 3.52; pKd (ARHGAP21, Q5T5U3; [2]): 4.17
TEEEVQDTRL [CFTR, P13569]	–	below the threshold	–	–	–
KKNKDKEYYV [NRXN1, Q9ULB1]	–	–	below the threshold	below the threshold	–
QGRWDHETIV [TMEM215, Q68D42]	–	–	3.99	below the threshold	–
CNTVTVETVV [MAS1, P04201]	below the threshold	below the threshold	–	–	–
GFGEERESIL [KIDINS220, Q9ULH0]	–	–	–	–	pKd (GOPC, Q9HD26; [2]): 3.55; pKd (ARHGAP21, Q5T5U3; [2]): 3.9
LHLHGTGIQV [EPHA7, Q15375]	–	–	–	–	pKd (GOPC, Q9HD26; [2]): below the threshold; pKd (ARHGAP21, Q5T5U3; [2]): 3.73
GIFPTLTSPL [SHROOM3, Q8TF72]	–	–	below the threshold	below the threshold	–
